This passage reports switch fluorescence ratio results from the supplement of paper PMC10126150.

± gives the standard deviation of the averaged measurements.
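Further: ATP exposure 15 min at 22 °C before imaging.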

This data set has as its system ATP. Kind of data set: switch fluorescence ratio, 500 uM ATP over buffer (Cy3 cluster intensity, sum of 5 cycles each) (fold (ratio)); higher = stronger signal-on switching upon ATP binding; sequences stand for … in TCGTCGGCAGCGTCAGATGTGTATAAGAGACAGTTTTTTTTTTTTTTTTTTTTTTTTT…TC. To be noted: aptamer strand: ATP DNA aptamer (quencher-CACCTGGGGGAGTATTGCGGAGGAAGG + anchor), 100 nM annealed; ATP concentration: 500 uM. A digest of the protocol: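 The fluorescence ratio divides summed target-cycle Cy3 intensity by summed buffer-cycle Cy3 intensity for each cluster and is averaged per switch-domain sequence. Cy3-labelled switching-strand clusters on a modified Illumina MiSeq flow-cell were annealed to 100 nM quencher-labelled ATP aptamer, then imaged in selection buffer and again after 15 min with 500 uM ATP at 22 °C. Five such cycles were run, with NaOH stripping and re-annealing between them, and clusters outside 100-1000 RFU were excluded.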
With AACGGACAGG, the switch fluorescence ratio was 1.27 ± 0.049.

On to GGACAGAGTT, for which the switch fluorescence ratio came to 0.9801 ± 0.0013.

Regarding ATGGTTGTTC, the switch fluorescence ratio came out at 1.07 ± 0.16.

For TCAGCGTGTC, the switch fluorescence ratio came to 0.9648 ± 0.0079.

TAGGCTGGGC: the switch fluorescence ratio stood at 0.9673 ± 0.0041.

Take TTTGTTGATA: the switch fluorescence ratio stood at 0.983 ± 0.032.

In the case of ATGGGGGGAA, the switch fluorescence ratio was determined as 0.996 ± 0.037.

Regarding CGCATCCTTG, the switch fluorescence ratio was determined as 1.03 ± 0.027.

Turning to CACCTCAGAT, the switch fluorescence ratio was determined as 1.05 ± 0.023.

ATGCAGATCC: the switch fluorescence ratio came to 1.04 ± 0.042.

CTGTGGCAGG: the switch fluorescence ratio was 1.021 ± 0.0041.

Consider AGGGCGGGTG, for which the switch fluorescence ratio is 1.047 ± 0.0095.

For the sequence CATGGGAAGG, the switch fluorescence ratio came to 0.997 ± 0.034.

As for AATTTGGCTG, the switch fluorescence ratio came to 1.22 ± 0.29.

In the case of TGGTCTTTGT, the switch fluorescence ratio was 1 ± 0.015.

Turning to GACATATTAT, the switch fluorescence ratio amounted to 1.013 ± 0.0057.

As for TTGGGGGTCC, the switch fluorescence ratio was found to be 1.02 ± 0.038.

On to TATGGGGCAA, for which the switch fluorescence ratio is 1.091 ± 0.0015.

In the case of GCGGATGTGC, the switch fluorescence ratio worked out at 1.036 ± 0.0078.

As to TCGCGGGGTG, the switch fluorescence ratio was 1.02 ± 0.056.

As for CTAAATAATA, the switch fluorescence ratio worked out at 0.992 ± 0.027.

With ACACAGTAGT, the switch fluorescence ratio is 1.03 ± 0.011.

Take CTGCGGGGGA: the switch fluorescence ratio is 1.03 ± 0.037.

Take TTTTGATGCT: the switch fluorescence ratio was 0.998 ± 0.057.

AAATGGGACT: the switch fluorescence ratio is 1.03 ± 0.026.

For TTTAGGTTCT, the switch fluorescence ratio was 1.01 ± 0.026.

With TTTTTTTGTT, the switch fluorescence ratio amounted to 1 ± 0.034.

TAAGTGGG: the switch fluorescence ratio stood at 0.9621 ± 0.0055.

As for TGCTCATTCG, the switch fluorescence ratio was found to be 1.01 ± 0.024.

For TTGGAAGTTC, the switch fluorescence ratio was 1 ± 0.019.

For CTTTGTATGT, the switch fluorescence ratio is 0.982 ± 0.029.

CTCGTATCAG: the switch fluorescence ratio was found to be 1.01 ± 0.021.

AGGGGGGGAT: the switch fluorescence ratio worked out at 0.982 ± 0.029.

For GCGAGGGGCG, the switch fluorescence ratio came out at 1 ± 0.062.

In the case of GGAATGGGTC, the switch fluorescence ratio turned out to be 0.9736 ± 0.0087.

In the case of TTTATGGCCT, the switch fluorescence ratio worked out at 1.02 ± 0.052.

Turning to GGGGAAACAG, the switch fluorescence ratio came out at 1 ± 0.018.

As to ACGGTTTAAC, the switch fluorescence ratio was 1.105 ± 0.005.

As to GGTGTGGCTC, the switch fluorescence ratio amounted to 1 ± 0.044.

For TTGAAGGTGC, the switch fluorescence ratio was found to be 1.69 ± 0.43.

On to TAAAGGGAGT, for which the switch fluorescence ratio is 1 ± 0.024.

For TTCTTTGGAC, the switch fluorescence ratio is 1.0597 ± 0.0003.

As to TTACAAGACG, the switch fluorescence ratio turned out to be 1.032 ± 0.0049.

For the sequence TAACTAATTT, the switch fluorescence ratio turned out to be 1.03 ± 0.017.

Regarding GGGAGAATAG, the switch fluorescence ratio was 0.985 ± 0.036.

On to TGCGACAGTT, for which the switch fluorescence ratio is 1.006 ± 0.0029.

Take ATGGGTTAGA: the switch fluorescence ratio came to 1.05 ± 0.037.

In the case of CATTGTGACT, the switch fluorescence ratio worked out at 1 ± 0.016.

GGTTGCAGGG: the switch fluorescence ratio was found to be 1.01 ± 0.011.

Take GCCTGTAAGT: the switch fluorescence ratio stood at 0.989 ± 0.032.

In the case of TCGAGGGGGA, the switch fluorescence ratio stood at 1.31 ± 0.63.

For AGTCATTATG, the switch fluorescence ratio was 1 ± 0.036.

For ATACCTCTTG, the switch fluorescence ratio was found to be 0.992 ± 0.022.

As to AATAAACGCT, the switch fluorescence ratio was found to be 1.04 ± 0.074.

Consider TTCAAGGGAG, for which the switch fluorescence ratio is 0.995 ± 0.014.

For TCGTTCAGGA, the switch fluorescence ratio turned out to be 0.995 ± 0.013.

With GGATTATGTC, the switch fluorescence ratio was determined as 0.975 ± 0.039.

Take TGTAAAATTT: the switch fluorescence ratio was 0.988 ± 0.053.

Consider GGATGGTGGA, for which the switch fluorescence ratio was 0.9966 ± 0.0093.

Take TGGATTATAG: the switch fluorescence ratio came to 1.02 ± 0.033.

Take TAAAACCCGC: the switch fluorescence ratio was 1.05 ± 0.032.

As to TTAGGGCCGC, the switch fluorescence ratio was 0.966 ± 0.014.

Regarding AAGGTTGGAT, the switch fluorescence ratio worked out at 0.987 ± 0.012.

Turning to TAATTTCCGG, the switch fluorescence ratio worked out at 0.994 ± 0.029.

On to TTTGGTGAAC, for which the switch fluorescence ratio is 1 ± 0.022.

Consider GATATTTCCC, for which the switch fluorescence ratio came to 0.9981 ± 0.0064.

As for TATGGCCGTG, the switch fluorescence ratio amounted to 0.998 ± 0.061.

For CAGATCCGGG, the switch fluorescence ratio amounted to 1 ± 0.024.

For GTATGGGTGG, the switch fluorescence ratio amounted to 1 ± 0.024.

Consider GGGTGGGTTT, for which the switch fluorescence ratio came out at 1 ± 0.018.

For the sequence ATCAGAGTGC, the switch fluorescence ratio is 1.03 ± 0.06.

Take AAAACTTCCT: the switch fluorescence ratio turned out to be 2.5 ± 0.67.

On to TTTGTTTTTT, for which the switch fluorescence ratio was found to be 0.994 ± 0.03.

AACAACCATT: the switch fluorescence ratio is 1.05 ± 0.051.

As for GCGTGCATCC, the switch fluorescence ratio was determined as 1.03 ± 0.053.

Regarding ATTAAGTCGT, the switch fluorescence ratio worked out at 0.982 ± 0.033.

Take TTGCACGGTT: the switch fluorescence ratio was determined as 1.04 ± 0.06.

Turning to GGTTTTAGTG, the switch fluorescence ratio was found to be 0.967 ± 0.037.
